The labels stand for the following.
B1: 276 (peptide)
peptide: Ac-[dA]NWNGFG[dL]RF-NH2
SMILES: CC(=O)N[C@H](C)C(=O)N[C@@H](CC(N)=O)C(=O)N[C@@H](Cc1c[nH]c2ccccc12)C(=O)N[C@@H](CC(N)=O)C(=O)NCC(=O)N[C@@H](Cc1ccccc1)C(=O)NCC(=O)N[C@H](CC(C)C)C(=O)N[C@@H](CCCNC(=N)N)C(=O)N[C@@H](Cc1ccccc1)C(N)=O
B2: 275 (peptide)
peptide: Ac-[dA]NWN[dP]FG[dW]RF-NH2
SMILES: CC(=O)N[C@H](C)C(=O)N[C@@H](CC(N)=O)C(=O)N[C@@H](Cc1c[nH]c2ccccc12)C(=O)N[C@@H](CC(N)=O)C(=O)N1CCC[C@@H]1C(=O)N[C@@H](Cc1ccccc1)C(=O)NCC(=O)N[C@H](Cc1c[nH]c2ccccc12)C(=O)N[C@@H](CCCNC(=N)N)C(=O)N[C@@H](Cc1ccccc1)C(N)=O
B3: 247 (peptide)
peptide: Ac-[dA]NWNSFG[dW]RF-NH2
SMILES: CC(=O)N[C@H](C)C(=O)N[C@@H](CC(N)=O)C(=O)N[C@@H](Cc1c[nH]c2ccccc12)C(=O)N[C@@H](CC(N)=O)C(=O)N[C@@H](CO)C(=O)N[C@@H](Cc1ccccc1)C(=O)NCC(=O)N[C@H](Cc1c[nH]c2ccccc12)C(=O)N[C@@H](CCCNC(=N)N)C(=O)N[C@@H](Cc1ccccc1)C(N)=O
B4: 246 (peptide)
peptide: Ac-[dA]NWNG[dW]G[dW]RF-NH2
SMILES: CC(=O)N[C@H](C)C(=O)N[C@@H](CC(N)=O)C(=O)N[C@@H](Cc1c[nH]c2ccccc12)C(=O)N[C@@H](CC(N)=O)C(=O)NCC(=O)N[C@H](Cc1c[nH]c2ccccc12)C(=O)NCC(=O)N[C@H](Cc1c[nH]c2ccccc12)C(=O)N[C@@H](CCCNC(=N)N)C(=O)N[C@@H](Cc1ccccc1)C(N)=O
B5: 245 (peptide)
peptide: Ac-[dY]NWNG[dW]G[dW]RF-NH2
SMILES: CC(=O)N[C@H](Cc1ccc(O)cc1)C(=O)N[C@@H](CC(N)=O)C(=O)N[C@@H](Cc1c[nH]c2ccccc12)C(=O)N[C@@H](CC(N)=O)C(=O)NCC(=O)N[C@H](Cc1c[nH]c2ccccc12)C(=O)NCC(=O)N[C@H](Cc1c[nH]c2ccccc12)C(=O)N[C@@H](CCCNC(=N)N)C(=O)N[C@@H](Cc1ccccc1)C(N)=O
B6: 248 (peptide)
peptide: Ac-[dA]NWNGFGWRF-NH2
SMILES: CC(=O)N[C@H](C)C(=O)N[C@@H](CC(N)=O)C(=O)N[C@@H](Cc1c[nH]c2ccccc12)C(=O)N[C@@H](CC(N)=O)C(=O)NCC(=O)N[C@@H](Cc1ccccc1)C(=O)NCC(=O)N[C@@H](Cc1c[nH]c2ccccc12)C(=O)N[C@@H](CCCNC(=N)N)C(=O)N[C@@H](Cc1ccccc1)C(N)=O
B7: 244 (peptide)
peptide: Ac-[dF]NWNGFG[dW]RF-NH2
SMILES: CC(=O)N[C@H](Cc1ccccc1)C(=O)N[C@@H](CC(N)=O)C(=O)N[C@@H](Cc1c[nH]c2ccccc12)C(=O)N[C@@H](CC(N)=O)C(=O)NCC(=O)N[C@@H](Cc1ccccc1)C(=O)NCC(=O)N[C@H](Cc1c[nH]c2ccccc12)C(=O)N[C@@H](CCCNC(=N)N)C(=O)N[C@@H](Cc1ccccc1)C(N)=O
B8: 243 (peptide)
peptide: Ac-[dW]NWNGFG[dW]RF-NH2
SMILES: CC(=O)N[C@H](Cc1c[nH]c2ccccc12)C(=O)N[C@@H](CC(N)=O)C(=O)N[C@@H](Cc1c[nH]c2ccccc12)C(=O)N[C@@H](CC(N)=O)C(=O)NCC(=O)N[C@@H](Cc1ccccc1)C(=O)NCC(=O)N[C@H](Cc1c[nH]c2ccccc12)C(=O)N[C@@H](CCCNC(=N)N)C(=O)N[C@@H](Cc1ccccc1)C(N)=O
B9: 274 (peptide)
peptide: Ac-[dA]NWNPFG[dW]RF-NH2
SMILES: CC(=O)N[C@H](C)C(=O)N[C@@H](CC(N)=O)C(=O)N[C@@H](Cc1c[nH]c2ccccc12)C(=O)N[C@@H](CC(N)=O)C(=O)N1CCC[C@H]1C(=O)N[C@@H](Cc1ccccc1)C(=O)NCC(=O)N[C@H](Cc1c[nH]c2ccccc12)C(=O)N[C@@H](CCCNC(=N)N)C(=O)N[C@@H](Cc1ccccc1)C(N)=O
B10: 277 (peptide)
peptide: Ac-[dA]NWN[dA]FGLRF-NH2
SMILES: CC(=O)N[C@H](C)C(=O)N[C@@H](CC(N)=O)C(=O)N[C@@H](Cc1c[nH]c2ccccc12)C(=O)N[C@@H](CC(N)=O)C(=O)N[C@H](C)C(=O)N[C@@H](Cc1ccccc1)C(=O)NCC(=O)N[C@@H](CC(C)C)C(=O)N[C@@H](CCCNC(=N)N)C(=O)N[C@@H](Cc1ccccc1)C(N)=O

Non-standard residues stand in square brackets, D forms with d.

For the assay, the target named is human gpr-54 receptor (human, UniProt Q969F8 1-398). The assay is described as follows: cell-based or functional assay.
Chain of human gpr-54 receptor (Q969F8 whole entry): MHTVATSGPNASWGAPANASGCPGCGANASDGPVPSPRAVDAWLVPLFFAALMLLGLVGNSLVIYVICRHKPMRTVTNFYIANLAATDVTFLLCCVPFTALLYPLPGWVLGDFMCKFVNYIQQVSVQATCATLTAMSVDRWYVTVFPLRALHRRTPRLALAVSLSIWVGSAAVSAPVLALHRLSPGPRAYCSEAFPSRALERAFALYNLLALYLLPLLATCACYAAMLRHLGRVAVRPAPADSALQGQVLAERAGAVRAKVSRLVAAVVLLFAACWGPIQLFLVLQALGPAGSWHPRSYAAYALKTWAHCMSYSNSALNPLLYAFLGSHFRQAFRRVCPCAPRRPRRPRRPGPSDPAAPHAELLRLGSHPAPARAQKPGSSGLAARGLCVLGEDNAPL
As for B1, the “Inhibition of IP stimulation by 10nM Agonist: % Inhibition of Max” value (“Inhibition … % Inhibition of Max” below) came out at 65% and the “Inhibition of IP stimulation by 10nM Agonist: IC50” value (from here on “Inhibition of IP stimulation … IC50”) worked out at 0.001 nM.
As to Ac-[dA]NWNGFGL[dR]F-NH2 [278], the “Inhibition … % Inhibition of Max” value came to 47% and the “Inhibition of IP stimulation … IC50” value was greater than 100 nM.
In the case of B2, the “IP stimulation (IC50), peptide alone” value came to 0.021 µM; the “Inhibition … % Inhibition of Max” value was 44%; the “Inhibition of IP stimulation … IC50” value was greater than 100 nM.
Ac-[dY][dN]WNGFGWRF-NH2 [240]: the “Inhibition … % Inhibition of Max” value came out at 39%.
For the molecule B3, the “Inhibition … % Inhibition of Max” value turned out to be 80% and the “Inhibition of IP stimulation … IC50” value came out at 8 nM.
In the same order, the values of B4 are 80% and 50 nM.
Ac-[dY][dN]WNSFG[dW]RF-NH2 [241]: the “Inhibition … % Inhibition of Max” value is 24%.
For the molecule B5, the “Inhibition … % Inhibition of Max” value was determined as 66% and the “Inhibition of IP stimulation … IC50” value worked out at 10000 nM.
In the same order, the values of B6 are 64% and 5000 nM.
In the case of Ac-RRMKWKKY[dA]NWNGFG[dW]RF-NH2 [Peptide 271], the “Inhibition … % Inhibition of Max” value amounted to 57% and the “Inhibition of IP stimulation … IC50” value came to 5 nM.
As to B7, the “Inhibition … % Inhibition of Max” value was found to be 60% and the “Inhibition of IP stimulation … IC50” value is 10 nM.
Taken in the same sequence, the figures for B8 were 55% and 10 nM.
Consider Ac-[dY][dN]WNGFG[dW]RF-NH2 (also: further groups not given here) [242], for which the “Inhibition … % Inhibition of Max” value came to 15%.
For the molecule B9, the “IP stimulation (IC50), peptide alone” value came out at 530 µM; the “Inhibition … % Inhibition of Max” value was 73%; the “Inhibition of IP stimulation … IC50” value came out at 0.1 nM.
Taken in the same sequence, the figures for B10 were 1.5 µM, 57% and 0.05 nM.

For the origin of these results see US20110046068A1 (MEDICAL RESEARCH COUNCIL, published 2011).
